Results on 1 substance are retold here after PMC4422724.

Assay [1] has as its target G146V mutant Dictyostelium actin (Dictyostelium). Kind of assay: pyrene fluorescence depolymerization assay; 2 μM Mg-actin (20% pyrene-labeled) polymerized for 12 min at 22°C with 100 mM KCl, 2 mM MgCl2, 0.5 mM ATP; depolymerization induced with 30 μM latrunculin A; double-exponential fit; filament to monomers.
For assay [2] the target is unchanged. The assay is described as follows: co-sedimentation; critical concentration by pelleting assay: 0.5-3.0 μM actin polymerized in F-buffer (10 mM HEPES pH 7.4, 2 mM MgCl2, 100 mM KCl, 0.5 mM ATP, 0.5 mM DTT) for 3 hr at 21°C, ultracentrifuged, protein in pellets determined; monomer to filament.
Assay [3] has the same target. The assay is described as follows: pyrene fluorescence depolymerization assay; 2 μM Mg-actin (20% pyrene-labeled) polymerized overnight at 22°C with 100 mM KCl, 2 mM MgCl2, 0.5 mM ATP; depolymerization induced with 30 μM latrunculin A; double-exponential fit; filament to monomers.

In assay [1], “G146V mutant Dictyostelium actin (natural protein)” gave a τf (depolymerization, fast-depolymerization population) of 20.1 min and a τs (depolymerization, slow-depolymerization population) of 169 min. In assay [2], this substance came in with a critical concentration of 0.51 µM. Besides, in assay [3], the τf (depolymerization, fast-depolymerization population) was found to be 27.4 min and the τs (depolymerization, slow-depolymerization population) was 98 min.
